From patent publication US20230174626A1 (GlaxoSmithKline, published 2023)

B1: humanized 23C2 mAb (antibody, human IgG1, kappa, V domains shown)
VH: DVQLQESGPGLVKPSQSLSLTCSVTGYSIKSGYYWNWIRQFPGNKLEWMGYISYGGDFTYNPSLKNRISITRDTSKNQFFLKLNSVTTEDTATYFCVREPNWESYFDIWGAGTTVTVSS
VL: DIQMTQSPASLSASVGETVTITCRASDNIYSYLTWYHQKQGKSPHLLVYNAKTLPEGVPLRFSGTGSGTQFSLKINSLQPEDFGIYFCLHDYGFPRTFGGGTILEVKR
B2: humanized 26B6 mAb (antibody, human IgG1, kappa, V domains shown)
VH: EVQLVESGGGLVKPGGSLKLSCAASGFTITDYYIYWLRQTPEKKLEWVAAISDGGRYTDYPDSVKGRFTMSSDNAKTNLYLQMGSLQSDDTGMYYCARWASYGYHWYFDVWGAGTTVTVSS
VL: DIQMTQTTSSLSASLGDRVTISCSASQDISNYINWYQQKRDGTVKLLIYDSSSLHSGVPSRFSGSGSGTDYSLTISNLEPEDFATYFCQQYSNLPPTFGGGTNLEIKR
B3: humanized 2C7 mAb (antibody, human IgG1, kappa, V domains shown)
VH: EVQLQQSGPELEKPGASVKISCKASGYSFTGYNMNWVKQSNGKSLEWIGNIDPYFGGTSYNQKFKGKATLTVDKSSSTAYMELKSLTSEDSAVYYCARHYGYFPWFAYWGQGTLVTVSA
VL: DIVLTQSPASLAVSLGQRATISCRASESVDSSGNSFMHWYQQKPGQPPKLLIYRASNLESGIPARFSGSGSRTDFTLTINPVGADDVATYYCQQSNEDPWTFGGGTKLEIKR

How the values were obtained:
[1] = target: ULs (UL128, UL130, UL131A of the HCMV Pentamer) on TB40 virus (Human Cytomegalovirus (HCMV), TB40 virus); test: cell-based or functional assay
[2] = target: HCMV glycoprotein H (gH) on TB40 virus (Human Cytomegalovirus (HCMV), TB40 virus); test: cell-based or functional assay

Binder | IC50 (µg/ml), HCMV TB40 neutralization on ARPE-19 epithelial cells [1] [µg/mL] | IC50 (µg/ml), HCMV TB40 neutralization on MRC-5 fibroblasts [1] [µg/mL] | IC50 (µg/ml), HCMV TB40 neutralization on ARPE-19 epithelial cells [2] [µg/mL] | IC50 (µg/ml), HCMV TB40 neutralization on MRC-5 fibroblasts [2] [µg/mL]
B1 | 0.0031 | > 10 | – | –
B2 | 0.00407 | > 10 | – | –
B3 | – | – | 0.0915 | 0.53
